Patent US20130331550A1 (TECHNISCHE UNIVERSITAET MUENCHEN, published 2013)

Target: the molecule itself
Assay: analytical size exclusion chromatography and analytical ultracentrifugation (sedimentation equilibrium); self-association (dimer) not seen
Protocol: Bovine serum albumin (66 kDa, Vᵣ=9.861 ml), carbonic anhydrase (29 kDa, Vᵣ=12.35 ml), myoglobin (17.05 kDa, Vᵣ=13.244 ml), cytochrome C (12.4 kDa, Vᵣ=14.11 ml), and aprotinin (6.5 kDa, Vᵣ=16.35 ml) were used as protein size standards for calibration of the column while the void volume was determined with blue dextran (V₀=8.08 ml).
Sedimentation equilibrium experiments were performed using an XL-I analytical ultracentrifuge and a Ti-60 rotor equipped with a UV/Vis as well as interference detector (Beckman, Fullerton, Calif.). An 0.8 mg/ml solution of the purified recombinant Blc in 150 mM NaCl, 1 mM EDTA, 100 M Tris/HCl pH 8.0 was applied to six-sector 12 mm path length cells. The samples were centrifuged at 25000 rpm for 72 h at 4° C., until equilibrium was reached, whereby the protein gradient was measured by UV absorption at 280 nm.

B1: recombinant Blc (Escherichia coli bacterial lipocalin, Cys1Ala/Cys113Ser, C-terminal Strep-tag II, as encoded on pBlc2) (other)
chain: ASSPTPPRGVTVVNNFDAKRYLGTWYEIARFDHRFERGLEKVTATYSLRDDGGLNVINKGYNPDRGMWQQSEGKAYFTGAPTRAALKVSFFGPFYGGYNVIALDREYRHALVSGPDRDYLWILSRTPTISDEVKQEMLAVATREGFDVSKFIWVQQPGSAWSHPQFEK
notes: The construct has 168 residues (159 + 9 tag residues)
- binding result: no binding (tested: about 40 µM)
